Laboratory results from patent US20250136963A1 (DENALI THERAPEUTICS, published 2025).

B1: ETV:IDUA Fusion 3 (Fc fusion)
chain 1: DKTHTCPPCPAPEAAGGPSVFLFPPKPKDTLMISRTPEVTCVVVDVSHEDPEVKFNWYVDGVEVHNAKTKPREEQYNSTYRVVSVLTVLHQDWLNGKEYKCKVSNKALSAPIEKTISKAKGQPREPQVYTLPPSRDELTKNQVSLWCLVKGFYPSDIAVEWESYGTEWANYKTTPPVLDSDGSFFLYSKLTVTKEEWQQGFVFSCSVMHEALHNHYTQKSLSLSPGK
chain 2: EAPHLVQVDAARALWPLRRFWRSTGFCPPLPHSQADQYVLSWDQQLNLAYVGAVPHRGIKQVRTHWLLELVTTRGSTGRGLSYNFTHLDGYLDLLRENQLLPGFELMGSASGHFTDFEDKQQVFEWKDLVSSLARRYIGRYGLAHVSKWNFETWNEPDHHDFDNVSMTMQGFLNYYDACSEGLRAASPALRLGGPGDSFHTPPRSPLSWGLLRHCHDGTNFFTGEAGVRLDYISLHRKGARSSISILEQEKVVAQQIRQLFPKFADTPIYNDEADPLVGWSLPQPWRADVTYAAMVVKVIAQHQNLLLANTTSAFPYALLSNDNAFLSYHPHPFAQRTLTARFQVNNTRPPHVQLLRKPVLTAMGLLALLDEEQLWAEVSQAGTVLDSNHTVGVLASAHRPQGPADAWRAAVLIYASDDTRAHPNRSVAVTLRLRGVPPGPGLVYVTRYLDNGLCSPDGEWRRLGRPVFPTAEQFRRMRAAEDPVAAAPRPLPAGGRLTLRPALRLPSLLLVHVCARPEKPPGQVTRLRALPLTQGQLVLVWSDEHVGSKCLWTYEIQFSQDGKAYTPVSRKPSTFNLFVFSPDTGAVSGSYRVRALDYWARPGPFSDPVPYLEVPVPRGPPSPGNPGGGGSDKTHTCPPCPAPEAAGGPSVFLFPPKPKDTLMISRTPEVTCVVVDVSHEDPEVKFNWYVDGVEVHNAKTKPREEQYNSTYRVVSVLTVLHQDWLNGKEYKCKVSNKALSAPIEKTISKAKGQPREPQVYTLPPSRDELTKNQVSLSCAVKGFYPSDIAVEWESNGQPENNYKTTPPVLDSDGSFFLVSKLTVDKSRWQQGNVFSCSVMHEALHNHYTQKSLSLSPGK
notes: Heterodimer of the two chains; also called third N-terminal monozyme IDUA-Fc fusion protein
B2: ETV:IDUA Fusion 6 (Fc fusion)
chain 1: B1 chain 1
chain 2: DKTHTCPPCPAPEAAGGPSVFLFPPKPKDTLMISRTPEVTCVVVDVSHEDPEVKFNWYVDGVEVHNAKTKPREEQYNSTYRVVSVLTVLHQDWLNGKEYKCKVSNKALSAPIEKTISKAKGQPREPQVYTLPPSRDELTKNQVSLSCAVKGFYPSDIAVEWESNGQPENNYKTTPPVLDSDGSFFLVSKLTVDKSRWQQGNVFSCSVMHEALHNHYTQKSLSLSPGKGGGGSEAPHLVQVDAARALWPLRRFWRSTGFCPPLPHSQADQYVLSWDQQLNLAYVGAVPHRGIKQVRTHWLLELVTTRGSTGRGLSYNFTHLDGYLDLLRENQLLPGFELMGSASGHFTDFEDKQQVFEWKDLVSSLARRYIGRYGLAHVSKWNFETWNEPDHHDFDNVSMTMQGFLNYYDACSEGLRAASPALRLGGPGDSFHTPPRSPLSWGLLRHCHDGTNFFTGEAGVRLDYISLHRKGARSSISILEQEKVVAQQIRQLFPKFADTPIYNDEADPLVGWSLPQPWRADVTYAAMVVKVIAQHQNLLLANTTSAFPYALLSNDNAFLSYHPHPFAQRTLTARFQVNNTRPPHVQLLRKPVLTAMGLLALLDEEQLWAEVSQAGTVLDSNHTVGVLASAHRPQGPADAWRAAVLIYASDDTRAHPNRSVAVTLRLRGVPPGPGLVYVTRYLDNGLCSPDGEWRRLGRPVFPTAEQFRRMRAAEDPVAAAPRPLPAGGRLTLRPALRLPSLLLVHVCARPEKPPGQVTRLRALPLTQGQLVLVWSDEHVGSKCLWTYEIQFSQDGKAYTPVSRKPSTFNLFVFSPDTGAVSGSYRVRALDYWARPGPFSDPVPYLEVPVPRGPPSPGNP
notes: Heterodimer of the two chains; also called C-terminal monozyme IDUA-Fc fusion protein
B3: ETV:IDUA Fusion 4 (Fc fusion)
chain 1: B1 chain 1
chain 2: EAPHLVQVDAARALWPLRRFWRSTGFCPPLPHSQADQYVLSWDQQLNLAYVGAVPHRGIKQVRTHWLLELVTTRGSTGRGLSYNFTHLDGYLDLLRENQLLPGFELMGSASGHFTDFEDKQQVFEWKDLVSSLARRYIGRYGLAHVSKWNFETWNEPDHHDFDNVSMTMQGFLNYYDACSEGLRAASPALRLGGPGDSFHTPPRSPLSWGLLRHCHDGTNFFTGEAGVRLDYISLHRKGARSSISILEQEKVVAQQIRQLFPKFADTPIYNDEADPLVGWSLPQPWRADVTYAAMVVKVIAQHQNLLLANTTSAFPYALLSNDNAFLSYHPHPFAQRTLTARFQVNNTRPPHVQLLRKPVLTAMGLLALLDEEQLWAEVSQAGTVLDSNHTVGVLASAHRPQGPADAWRAAVLIYASDDTRAHPNRSVAVTLRLRGVPPGPGLVYVTRYLDNGLCSPDGEWRRLGRPVFPTAEQFRRMRAAEDPVAAAPRPLPAGGRLTLRPALRLPSLLLVHVCARPEKPPGQVTRLRALPLTQGQLVLVWSDEHVGSKCLWTYEIQFSQDGKAYTPVSRKPSTFNLFVFSPDTGAVSGSYRVRALDYWARPGPFSDPVPYLEVPVGGGGSDKTHTCPPCPAPEAAGGPSVFLFPPKPKDTLMISRTPEVTCVVVDVSHEDPEVKFNWYVDGVEVHNAKTKPREEQYNSTYRVVSVLTVLHQDWLNGKEYKCKVSNKALSAPIEKTISKAKGQPREPQVYTLPPSRDELTKNQVSLSCAVKGFYPSDIAVEWESNGQPENNYKTTPPVLDSDGSFFLVSKLTVDKSRWQQGNVFSCSVMHEALHNHYTQKSLSLSPGK
notes: Heterodimer of the two chains; also called fourth N-terminal monozyme IDUA-Fc fusion protein

What follows are binders tested against T1, human apical domain TfR (human, UniProt P02786 198-378) (assay: SPR (Biacore 8K), fusion captured on Protein A chip, human TfR apical domain as analyte, 1:1 Langmuir fit, monovalent).
T1 construct: also called human TfR; human transferrin receptor 1 apical domain
Protocol: To determine whether IDUA-Fc fusion proteins with engineered TfR binding affects the ability of the modified Fc domain to interact with human TfR, the affinity of ETV:IDUA Fusions 3, 4, and 6 (Example 1) for human TfR was measured by surface plasmon resonance (SPR) using a Biacore 8K instrument (Cytiva). Five (5) μg/mL of the IDUA-Fc fusion proteins were captured for 1 minute on Protein A-coated Biacore™ Series S CM5 sensor chip and serial 3-fold dilutions of human apical domain TfR were injected at a flow rate of 30 μL/min. Each sample was analyzed with five consecutive 60-second injections with increasing human TfR concentrations followed by a 60-second dissociation at the end of the injection cycle. After each injection, the chip was regenerated using 10 mM glycine-HCl (pH 1.5). Binding response was corrected by subtracting the RU from a flow cell capturing an irrelevant IgG at similar density A. 1:1 Languir model of simultaneous fitting of kₒₙ and koff was used for kinetics analysis using Biacore™ Insight Evaluation Software.

T1 sequence (P02786 198-378 limits assumed): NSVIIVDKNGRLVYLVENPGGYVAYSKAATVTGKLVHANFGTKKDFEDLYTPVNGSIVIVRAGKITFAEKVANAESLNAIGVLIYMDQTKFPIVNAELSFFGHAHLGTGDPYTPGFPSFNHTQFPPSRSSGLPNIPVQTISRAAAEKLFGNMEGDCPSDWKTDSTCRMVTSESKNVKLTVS

Binder | Kd [nM]
B1 | 340
B2 | 200
B3 | 355
